The record followed here is patent US20250361288A1 (Gilead, published 2025).

For orientation: EC50 means the concentration that produces a half-maximal response.

The labels stand for the following.
T1: recombinant DcR3 protein (human DcR3 residues 33-300 linked to the N-terminal of rabbit Fc) (human, UniProt O95407 33-300)
T1 construct: range 33-300; Expressed in Expi293F, purified on protein A; not shown: rabbit Fc
T1 sequence (looked up): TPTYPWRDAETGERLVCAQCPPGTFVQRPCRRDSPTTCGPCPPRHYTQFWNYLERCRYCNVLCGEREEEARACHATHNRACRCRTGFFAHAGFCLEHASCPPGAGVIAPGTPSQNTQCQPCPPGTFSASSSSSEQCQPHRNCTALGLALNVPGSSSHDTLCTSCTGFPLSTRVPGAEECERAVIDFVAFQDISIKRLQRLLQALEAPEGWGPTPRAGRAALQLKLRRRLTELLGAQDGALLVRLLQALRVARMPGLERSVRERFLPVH

T2: mouse HVEM extracellular domain fused with an Fc fragment at the C-terminus (mouse, UniProt Q80WM9 39-206, limits assumed)
T2 construct: extracellular domain; Bought; also called mHVEM; not shown: Fc fragment at the C-terminus
T2 sequence (looked up): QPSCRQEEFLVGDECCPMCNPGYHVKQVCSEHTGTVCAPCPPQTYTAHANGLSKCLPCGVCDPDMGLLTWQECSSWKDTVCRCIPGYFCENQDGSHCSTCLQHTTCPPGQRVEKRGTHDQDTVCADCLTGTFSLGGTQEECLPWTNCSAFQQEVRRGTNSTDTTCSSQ

B1: LIGHT (74-240) (ligand)
chain: DGPAGSWEQLIQERRSHEVNPAAHLTGANSSLTGSGGPLLWETQLGLAFLRGLSYHDGALVVTKAGYYYIYSKVQLGGVGCPLGLASTITHGLYKRTPRYPEELELLVSQQSPCGRATSSSRVWWDSSFLGGVVHLEAGEKVVVRVLDERLVRLRDGTRSYFGAFMV
notes: Soluble protein carries an N-terminal His tag; also called wild-type human LIGHT; LIGHT (74-240) (wt)
B2: LIGHT-1 (ligand)
chain: B1 chain with V79M, W125Q, R155L
notes: Printed mutations: V152M, W198Q, R228L; Soluble protein carries an N-terminal His tag
B3: human HVEM extracellular domain fused with an Fc fragment at the C-terminus (Fc fusion, UniProt Q92956 39-202, looked up)
chain: LPSCKEDEYPVGSECCPKCSPGYRVKEACGELTGTVCEPCPPGTYIAHLNGLSKCLQCQMCDPAMGLRASRNCSRTENAVCGCSPGHFCIVQDGDHCAACRAYATSSPGQRVQKGGTESQDTLCQNCPPGTFSPNGTLEECQHQTKCSWLVTKAGAGTSSSHWV
notes: extracellular domain; Bought; also called hHVEM; not shown: Fc fragment at the C-terminus
B4: LIGHT-2 (ligand)
chain: B1 chain with R116S, W125Q, R155L
notes: Printed mutations: R189S, W198Q, R228L; Soluble protein carries an N-terminal His tag
B5: LIGHT-86 (ligand)
chain: B1 chain with G77R, S87R, L147S
notes: Printed mutations: G150R, S160R, L220S; Soluble protein carries an N-terminal His tag
B6: LIGHT-90 (ligand)
chain: B1 chain with S87G, T88G, L147T, E149S
notes: Printed mutations: S160G, T161G, L220T, E222S; Soluble protein carries an N-terminal His tag
B7: LIGHT-3 (ligand)
chain: B1 chain with G77A, L147S
notes: Printed mutations: G150A, L220S; Soluble protein carries an N-terminal His tag
B8: LIGHT-5 (ligand)
chain: B1 chain with T88P, R116S, W125Q, R155L
notes: Printed mutations: T161P, R189S, W198Q, R228L; Soluble protein carries an N-terminal His tag
B9: LIGHT-52 (ligand)
chain: B1 chain with L147S
notes: Printed mutations: L220S; Soluble protein carries an N-terminal His tag
B10: LIGHT-7 (ligand)
chain: B1 chain with P82R, L147Q, R159H
notes: Printed mutations: P155R, L220Q, R232H; Soluble protein carries an N-terminal His tag

Numbering of substitutions follows the chain as printed. Names may count otherwise. Like-named read-outs stand apart in the source and are kept apart here.

Test [1] has as its target T3, human LTβR extracellular domain fused with an Fc fragment at the C-terminus (human, UniProt P36941 31-227).
T3 construct: extracellular domain; Bought; also called hLTβR; not shown: Fc fragment at the C-terminus
In words: ELISA on coated target-Fc. The essentials:
(§1)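 Plates coated with target protein at 1 μg/ml, blocked with 2% BSA-PBS; His-tagged LIGHT muteins added in serial dilution from 200 ng/ml, 1 h. Bound mutein detected with anti-His antibody plus HRP secondary, TMB read-out at 450 nm; EC50 from dose-response curves.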
In general terms: ELISA stands for enzyme-linked immunosorbent assay.

For test [2], the target named is B3. In words: ELISA on coated target-Fc. As to the method: (§2) Nunc MaxiSorp 96-well plates (Thermofisher) were coated with target proteins (1 μg/ml), and then blocked with 2% BSA-PBS buffer for one hour. Serial dilutions of the LIGHT muteins were added with a maximum concentration of 200 ng/ml. The plates were incubated for one hour, washed four times with PBST, and then incubated with mouse anti-His tag antibody (#105327, Sino Biological) for 1 hour. The plates were further incubated with HRP-conjugated goat anti-mouse secondary antibody (#SSA006, Sino Biological) before being washed three times with PBST and treated with TMB substrate (#34029, ThermoFisher). The plates were read at 450 nm on a SpectraMax M5 microplate reader (Molecule Devices). The ELISA results were analyzed using GraphPad Prism 9.0 software and the EC50s (half maximal effective concentration) were summarized in Table 5-1 and Table 5-2.

Test [3] deals with T3, human LTβR extracellular domain fused …. The test can be described thus: ELISA on coated target-Fc. As to the method:
as §2
The source holds these as a separate data set.

Test [4] concerns the target T4, mouse LTβR extracellular domain fused with an Fc fragment at the C-terminus (mouse, UniProt P50284 31-223).
T4 construct: extracellular domain; Bought; also called mLTβR; not shown: Fc fragment at the C-terminus
The test can be described thus: ELISA on coated target-Fc. As to the method: as §2

Test [5] concerns the target T1, recombinant DcR3 protein (human DcR3 …). In words: ELISA on coated DcR3-rabbit Fc. The method, then: To test whether the muteins can bind to DcR3, the recombinant DcR3 protein was generated by linking human DcR3 residues 33-300 to the N-terminal of rabbit Fc. The recombinant proteins were expressed in Expi293F and affinity-purified using protein A beads, as previously described. Human DcR3 proteins were immobilized onto maxiSorp 96-well ELISA plates (Thermo Fisher) at a concentration of 0.5 μg/mL and then blocked with 2% BSA-PBS buffer for one hour. The LIGHT variants were added to the plates at various dilutions, with a maximum concentration of 10 nM. The plates were incubated for one hour, washed four times with PBST, and then incubated with mouse anti-His tag antibody (#105327, Sino Biological) for 1 hour. The plates were further incubated with HRP-conjugated goat anti-mouse secondary antibody (#SSA006, Sino Biological) before being washed three times with PBST and treated with TMB substrate (#34029, ThermoFisher). The plates were read at 450 nm on a SpectraMax M5 microplate reader (Molecule Devices). The ELISA results were analyzed using GraphPad Prism 9.0 software and the EC50s (half maximal effective concentration) were summarized in Table 5-2.

The target in test [6] is T2, mouse HVEM extracellular domain fused …. In words: phage ELISA. The essentials: (§3)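 Supernatants from fourth-round clones rescued with helper phage were applied to plates coated with 1 μg/ml target for 1 h at room temperature. Bound phage detected with HRP anti-M13 and TMB at OD450; clones were called positive when the target/BSA ratio was >3.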
Test [7] has as its target T4, mouse LTβR extracellular domain fused …. The test can be described thus: ELISA on coated target-Fc. The essentials: as §1
This is another data set of the same source.

Test [8] has as its target B3. The test can be described thus: ELISA on coated target-Fc, Table 5-1. As to the method: as §2
Test [9] addresses B1. The test can be described thus: ELISA on coated target-Fc. The essentials: as §1
Test [10] has as its target T4, mouse LTβR extracellular domain fused …. In words: phage ELISA. In a few lines:
as §3

Test [11] addresses B3. In words: ELISA on coated target-Fc. The essentials:
as §1
This is another data set of the same source.

T4 sequence (P50284 31-223): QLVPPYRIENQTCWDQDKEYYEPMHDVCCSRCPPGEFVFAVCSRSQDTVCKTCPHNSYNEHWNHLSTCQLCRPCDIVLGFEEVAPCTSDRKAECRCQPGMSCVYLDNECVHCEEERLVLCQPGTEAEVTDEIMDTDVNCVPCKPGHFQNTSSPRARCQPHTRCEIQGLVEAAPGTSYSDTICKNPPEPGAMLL
T3 sequence (P36941 31-227): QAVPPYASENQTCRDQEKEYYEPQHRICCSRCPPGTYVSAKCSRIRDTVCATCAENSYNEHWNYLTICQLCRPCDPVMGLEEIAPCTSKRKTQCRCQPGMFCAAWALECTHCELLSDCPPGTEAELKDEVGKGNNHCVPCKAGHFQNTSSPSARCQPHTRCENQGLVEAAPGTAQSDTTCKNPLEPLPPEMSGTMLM

On to B1, for which the half-maximal effective concentration (EC50) in test [1] was 0.22 µg/mL; in [2] it was 992 pM; in [3] it was 365 pM; in test [4], 885 pM; in [5], 247 pM. Also, the binding result in [6] is listed as “binds”.

As for B2, the half-maximal effective concentration (EC50) in test [1] worked out at 0.0493 µg/mL; in [7], 0.0605 µg/mL; in [3], 262 pM; in test [4], 800 pM. Moreover, the binding result in [8] and in test [6] was “no binding” throughout.

Consider B3, for which the binding result in [9] is recorded as “binds”.

Consider B4, for which the EC50 turned out to be 0.0762 µg/mL in test [1], 328 pM in test [3] and 2060 pM in test [4]. The binding result in [8] and in test [6] was “no binding” throughout.

For the molecule B5, the EC50 turned out to be 5270 pM in test [2], 336 pM in test [3], 327 pM in test [4] and 25900 pM in [5].

On to B6, for which the EC50 came to 2120 pM in test [2], 1780 pM in [3], 978 pM in [4] and 692 pM in test [5].

With B7, the 50% effective concentration (EC50) in test [1] is 0.0436 µg/mL; in [7], 0.0401 µg/mL. Moreover, the binding result in [8] is given as “no binding”; in test [6], “binds”.

The molecule B8 had an EC50 in test [1] of 0.0538 µg/mL. The binding result in test [8] was “no binding”; in test [6], “binds”; in test [10], “binds”.

In the case of B9, the EC50 in test [11] was found to be 0.019 µg/mL; in test [1], 0.0577 µg/mL; in test [7], 0.0279 µg/mL; in test [2], 599 pM; in test [3] it was 330 pM; in test [4], 2070 pM. Further, the EC50 in [5] was 190 pM. Moreover, the binding result in test [6] is on record as “binds”.

Take B10: the EC50 in test [1] worked out at 0.109 µg/mL; in test [7], 0.156 µg/mL. Further, the results for the binding result in test [8] and in [6] were “no binding” and “binds”, respectively.
